Reference: patent US20200332015A1 (NAMAB THERAPEUTICS, published 2020)
Several values for one entry are separate records, joined by “and”; a condition that tells them apart may be missing. Equal values may be shown once. Read-outs that look alike come from different tables or passages of the source. Values belong to the binder of their own block, whether it stands above or below them.

Assays:
[1] = molecular target: T1, human CD137 expressed on Jurkat cells (human, UniProt Q07011 24-255); assay: cell-based or functional assay
[2] = molecular target: T2, cynomolgus monkey Fc-tagged CD137 (R&D Systems, cat. 9324-4B-100) (cynomolgus monkey, UniProt A9YYE7 24-186); assay: SPR T200, antigen-Fc captured, molecule as analyte
T2 construct: also called cynomolgus CD137-Fc chimeric protein
T2 sequence (A9YYE7 entry or part of it): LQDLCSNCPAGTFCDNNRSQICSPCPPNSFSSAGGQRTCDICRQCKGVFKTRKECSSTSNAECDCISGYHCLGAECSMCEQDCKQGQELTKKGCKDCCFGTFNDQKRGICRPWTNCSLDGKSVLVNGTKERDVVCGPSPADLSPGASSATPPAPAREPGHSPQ
Outline: (§1)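 Biacore T200: anti-Fc antibody amine-coupled on CM5 chip captures chimeras of different species. Molecules injected as three-fold dilutions (0.12-90 nM) for 3 min, dissociation 10 min, 3 M MgCl₂ regeneration. Apparent ka, kd and KD from 1:1 Langmuir fit.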

[3] = molecular target: T3, Fc tagged human CD137 (R&D Systems, cat. 838-4B-100) (human, UniProt Q07011 24-186); assay: SPR T200, antigen-Fc captured, molecule as analyte
T3 construct: also called CD137 Fc chimera; human CD137-Fc chimeric protein
Outline: as §1

[4] = molecular target: T4, mouse Fc-tagged mouse CD137 (R&D Systems, cat. 937-4B-050) (mouse, UniProt P20334 24-187); assay: SPR T200, antigen-Fc captured, molecule as analyte
T4 construct: also called mouse CD137-Fc chimeric protein
T4 sequence (looked up): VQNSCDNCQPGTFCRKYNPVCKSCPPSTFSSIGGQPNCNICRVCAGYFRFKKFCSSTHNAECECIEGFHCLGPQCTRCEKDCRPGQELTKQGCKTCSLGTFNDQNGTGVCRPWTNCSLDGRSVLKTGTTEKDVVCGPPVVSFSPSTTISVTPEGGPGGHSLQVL
Outline: as §1

[5] = molecular target: human PDL1-Fc chimeric protein (human, UniProt Q9NZQ7 19-238, limits assumed); assay: SPR T200, antigen-Fc captured, molecule as analyte
Outline: as §1

[6] = molecular target: T1, human CD137 expressed on Jurkat cells; assay: cell-based or functional assay; remark: listed apart in the source
[7] = molecular target: T1, human CD137 expressed on Jurkat cells; assay: cell-based or functional assay; remark: listed apart in the source
[8] = molecular target: T1, human CD137 expressed on Jurkat cells; assay: cell-based or functional assay; remark: listed apart in the source
[9] = molecular target: T1, human CD137 expressed on Jurkat cells; assay: cell-based or functional assay; remark: listed apart in the source
[10] = molecular target: T1, human CD137 expressed on Jurkat cells; assay: cell-based or functional assay; remark: listed apart in the source
[11] = molecular target: T1, human CD137 expressed on Jurkat cells; assay: cell-based or functional assay; remark: listed apart in the source
[12] = molecular target: T1, human CD137 expressed on Jurkat cells; assay: cell-based or functional assay; remark: listed apart in the source
[13] = molecular target: T1, human CD137 expressed on Jurkat cells; assay: cell-based or functional assay; remark: listed apart in the source
[14] = molecular target: T1, human CD137 expressed on Jurkat cells; assay: cell-based or functional assay; remark: listed apart in the source
[15] = molecular target: T5, human PDL1 extracellular domain (human, UniProt Q9NZQ7 19-238); assay: SPR T200, Morrison format captured, ECD analyte
T5 construct: extracellular domain; Analyte for the Fc containing Morrison formats
Description: (§2) Affinity to PDL1 of the different species was determined by SPR measurements using a Biacore T200 device (GE Healthcare). An antibody specific for the Fc region of human IgGs was immobilized on a sensor chip (CM5 sensor chip, GE Healthcare) by amine-coupling. For all formats, with the exception of the Fc containing Morrison formats, PDL1-Fc chimeric protein from different species were captured by the immobilized antibody. Three-fold serial dilutions of the molecules specific for PDL1 (0.12-90 nM) were injected into the flow cells for three minutes and dissociation was monitored for 10 minutes. After each injection cycle, surfaces were regenerated with one injection of a 3 M MgCl₂ solution. The apparent dissociation (kd) and association (kₐ) rate constants and the apparent dissociation equilibrium constant (KD) were calculated using one-to-one Langmuir binding model. Affinity to CD137 of the different species was determined using the identical setup as for PDL1 with the exception that CD137-Fc chimeric proteins from different species were captured by the immobilized antibody.
(§3) The Fc containing formats were directly captured by the antibody specific for the Fc region of human IgGs. Two-fold serial dilutions of PDL1 extracellular domain or CD137 extracellular domain ranging from 90 to 0.35 nM were tested for binding to the IgG captured on the biosensor chip. After each injection cycle, surfaces were regenerated with one injection of a 3 M MgCl2 solution.

[16] = molecular target: T6, recombinant human CD137 extracellular domain (Peprotech, cat. 310-15-1MG) (human, UniProt Q07011 24-186); assay: SPR T200, Morrison format captured, ECD analyte
T6 construct: also called human CD137 ECD; CD137 ECD
Description: as §2, §3

EC50 NFkB-luciferase, CHO-PDL1 cells, 6 h [1]: 0.00784 µg/mL
EC50 NFkB-luciferase, CHO-PDL1 cells, 6 h, + HSA [1]: 0.00792 µg/mL
Top of curve fit, NFkB-luciferase, CHO-PDL1 cells, 6 h, + HSA [1]: 493
Kd [2]: 2.1 nM
koff [2]: 0.0007 s⁻¹
kon [2]: 340000 M⁻¹ s⁻¹
Kd [3]: 3.2 nM
koff [3]: 0.00076 s⁻¹
kon [3]: 240000 M⁻¹ s⁻¹
Kd [4]: 600 nM
koff [4]: 0.18 s⁻¹
kon [4]: 290000 M⁻¹ s⁻¹
Kd [5]: 0.065 nM
koff [5]: 0.00014 s⁻¹
kon [5]: 2.1e+06 M⁻¹ s⁻¹
EC50 NFkB-luciferase, CHO-PDL1 cells [6]: 0.0117 µg/mL
EC50 NFkB-luciferase, HCC827 with IFNy [7]: 0.00927 µg/mL and 0.00888 µg/mL and 0.00923 µg/mL
EC50 NFkB-luciferase, HCC827 with IFNy stimulation [8]: 0.00751 µg/mL
EC50 NFkB-luciferase, HCC827 without IFNy stimulation [8]: 0.00952 µg/mL
EC50 NFkB-luciferase, CHO-PDL1 cells [9]: 0.0063 µg/mL and 0.00513 µg/mL and 0.00486 µg/mL
EC50 NFkB-luciferase, HCC827 without IFNy [10]: 0.0115 µg/mL and 0.0131 µg/mL and 0.013 µg/mL
EC50 NFkB-luciferase, CHO-PDL1 cells, 24 h [11]: 0.0138 µg/mL
EC50 NFkB-luciferase, CHO-PDL1 cells, 24 h, + HBA (so in the source) [11]: 0.0149 µg/mL
Top of curve fit, NFkB-luciferase, CHO-PDL1 cells, 24 h, + HBA (so in the source) [11]: 258
EC50 of IL-2 secretion, SEA stimulated PBMC, 96 h [12]: 0.0399 µg/mL
EC50 of IL-2 secretion, PBMC + CHO-PDL1 50,000 cells/well, anti-CD3 1 ug/ml [13]: 0.0129 µg/mL
EC50 of IL-2 secretion, PBMC + CHO-PDL1 50,000 cells/well, anti-CD3 2 ug/ml [13]: 0.052 µg/mL
EC50 of IL-2 secretion, PBMC + CHO-PDL1 100,000 cells/well, anti-CD3 1 ug/ml [13]: 0.0862 µg/mL
EC50 of IL-2 secretion, PBMC + CHO-PDL1 100,000 cells/well, anti-CD3 2 ug/ml [13]: 0.0419 µg/mL
EC50 of IL-2 secretion, PBMC + CHO-PDL1 200,000 cells/well, anti-CD3 1 ug/ml [13]: 0.0806 µg/mL
EC50 of IL-2 secretion, PBMC + CHO-PDL1 200,000 cells/well, anti-CD3 2 ug/ml [13]: 0.0301 µg/mL
max. activation, HCC827 +IFNg [14]: 134%
max. activation, HCC827 -IFNg [14]: 111%
max. activation, NF-kB reporter gene, CHO-PD-L1 [14]: 499%
rel. IC50 (urelumab/test), HCC827 +IFNg [14]: 16.3 ratio
rel. IC50 (urelumab/test), HCC827 -IFNg [14]: 8.42 ratio
rel. IC50 (urelumab/test), NF-kB reporter gene, CHO-PD-L1 [14]: 6.75 ratio
B1: PRO885 (38-02-A04 sc01 scDb-i/33-03-G02 sc01 scDb-o) (bispecific antibody)
chain: DIQMTQSPSSLSASVGDRVTITCQASQSINDYLAWYQQKPGKAPKLLIYKASTLASGVPSRFSGSGSGTDFTLTISSLQPEDFATYYCQQGYIITDIDNVFGTGTKVTVLGGGGGSQVQLQESGPGLVKPSETLSLTCKVSGFSFSNSYWICWIRQPPGKGLEWIGCTFVGSSDSTYYANWAKGRVTISVDSSKNQFSLKLSSVTAADTAVYYCARHPSDAVYGYANNLWGQGTLVTVSSGGGGSGGGGSGGGGSGGGGSIQMTQSPSSLSASVGDRVTITCQASQSINNVLAWYQQKPGKAPKLLIYRASTLASGVPSRFSGSGSGTDFTLTISSLQPEDFATYYCQSSYGNYGDFGTGTKVTVLGGGGGSQVQLQESGPGLVKPSETLSLTCKVSGFSFSSGYDMCWIRQPPGKGLEWIGCVVAGSVDITYYASWAKGRVTISVDSSKNQFSLKLSSVTAADTAVYYCARKDAYSDAFNLWGQGTLVTVSS
notes: scDb, PDL1 x CD137; also called anti-PDL1xCD137 scDb

EC50 NFkB-luciferase, CHO-PDL1 cells, 6 h [1]: 0.0564 µg/mL
EC50 NFkB-luciferase, HCC827 with IFNy stimulation [8]: 0.0175 µg/mL
EC50 NFkB-luciferase, HCC827 without IFNy stimulation [8]: 0.0136 µg/mL
EC50 NFkB-luciferase, CHO-PDL1 cells, 24 h [11]: 0.0808 µg/mL
Kd [15]: 0.036 nM
koff [15]: 4.6e-05 s⁻¹
kon [15]: 1.3e+06 M⁻¹ s⁻¹
Kd [16]: 1.3 nM
koff [16]: 0.00039 s⁻¹
kon [16]: 300000 M⁻¹ s⁻¹
max. activation, HCC827 +IFNg, 24h [14]: 97%
max. activation, NF-kB reporter gene, CHO-PD-L1, 24h [14]: 144%
rel. IC50 (urelumab/test), HCC827 +IFNg, 24h [14]: 3.01 ratio
rel. IC50 (urelumab/test), HCC827 -IFNg, 24h [14]: 3.5 ratio
rel. IC50 (urelumab/test), NF-kB reporter gene, CHO-PD-L1, 24h [14]: 0.58 ratio
B2: PRO1060 (33-03-G02 IgG1 HC with 38_02_A04 sc01 scFv, PDL1/CD137(scFv) silent Morrison) (bispecific antibody)
light: DIQMTQSPSSLSASVGDRVTITCQASQSINDYLAWYQQKPGKAPKLLIYKASTLASGVPSRFSGSGSGTDFTLTISSLQPEDFATYYCQQGYIITDIDNVFGTGTKVTVLGTVAAPSVFIFPPSDEQLKSGTASVVCLLNNFYPREAKVQWKVDNALQSGNSQESVTEQDSKDSTYSLSSTLTLSKADYEKHKVYACEVTHQGLSSPVTKSFNRGEC
heavy: QVQLQESGPGLVKPSETLSLTCKVSGFSFSSGYDMCWIRQPPGKGLEWIGCVVAGSVDITYYASWAKGRVTISVDSSKNQFSLKLSSVTAADTAVYYCARKDAYSDAFNLWGQGTLVTVSSASTKGPSVFPLAPSSKSTSGGTAALGCLVKDYFPEPVTVSWNSGALTSGVHTFPAVLQSSGLYSLSSVVTVPSSSLGTQTYICNVNHKPSNTKVDKRVEPKSCDKTHTCPPCPAPEAAGGPSVFLFPPKPKDTLMISRTPEVTCVVVDVSHEDPEVKFNWYVDGVEVHNAKTKPREEQYNSTYRVVSVLTVLHQDWLNGKEYKCKVSNKALGAPIEKTISKAKGQPREPQVYTLPPSREEMTKNQVSLTCLVKGFYPSDIAVEWESNGQPENNYKTTPPVLDSDGSFFLYSKLTVDKSRWQQGNVFSCSVMHEALHNHYTQKSLSLSPGKGGGGSGGGGSIQMTQSPSSLSASVGDRVTITCQASQSINNVLAWYQQKPGKAPKLLIYRASTLASGVPSRFSGSGSGTDFTLTISSLQPEDFATYYCQSSYGNYGDFGTGTKVTVLGGGGGSGGGGSGGGGSGGGGSQVQLQESGPGLVKPSETLSLTCKVSGFSFSNSYWICWIRQPPGKGLEWIGCTFVGSSDSTYYANWAKGRVTISVDSSKNQFSLKLSSVTAADTAVYYCARHPSDAVYGYANNLWGQGTLVTVSS
notes: IgG1 with scFv fused to the heavy chain; called bivalent; also called Morrison-H
